Assay results as given in publication PMC9249791, “Molecular dissection of the glutamine synthetase-GlnR nitrogen regulatory circuitry in Gram-positive bacteria” (Nature Communications, 2022).
Where “and” joins values, the source holds several entries; their conditions need not be identical. Equal values may be shown once. Where no end group is shown, it is not given here.

T1: Pp GS (Paenibacillus polymyxa, UniProt A0A0F0G8G2)
T1 construct: gene glnA2; full-length, synthetic gene in pET15b, N-terminal His-tag (removed by thrombin for crystallography), E. coli C41(DE3)
T1 sequence (A0A0F0G8G2 1-442): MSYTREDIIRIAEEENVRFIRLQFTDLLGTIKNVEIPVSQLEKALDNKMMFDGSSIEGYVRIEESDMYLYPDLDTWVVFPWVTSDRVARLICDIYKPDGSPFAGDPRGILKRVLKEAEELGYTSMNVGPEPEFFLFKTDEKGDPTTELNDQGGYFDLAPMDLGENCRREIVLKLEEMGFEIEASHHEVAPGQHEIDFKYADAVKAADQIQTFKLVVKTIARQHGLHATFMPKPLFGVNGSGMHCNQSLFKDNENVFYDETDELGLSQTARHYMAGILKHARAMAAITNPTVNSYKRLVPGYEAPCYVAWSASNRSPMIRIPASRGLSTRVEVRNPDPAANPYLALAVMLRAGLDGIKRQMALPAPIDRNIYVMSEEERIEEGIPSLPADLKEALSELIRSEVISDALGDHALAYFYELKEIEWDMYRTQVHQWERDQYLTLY

T2: Sa GlnR(1-87) (S. aureus, UniProt Q53687 1-87)
T2 chain: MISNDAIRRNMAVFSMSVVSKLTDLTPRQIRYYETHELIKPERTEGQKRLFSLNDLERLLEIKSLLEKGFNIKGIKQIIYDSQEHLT

B1: Bs GlnR C-tail peptide (peptide)
peptide: MQAGRFQRGNTFRQGDMSRFFH
notes: C-tail residues of GlnR of B. subtilis; also called Bs GlnR peptide; source: synthetic peptide, bought: Genscript
B2: Bacillus subtilis glutamine synthetase (enzyme, B. subtilis)
chain: MAKYTREDIEKLVKEENVKYIRLQFTDILGTIKNVEIPVSQLGKALDNKVMFDGSSIEGFVRIEESDMYLYPDLNTFVIFPWTAEKGKVARFICDIYNPDGTPFEGDPRNNLKRILKEMEDLGFSDFNLGPEPEFFLFKLDEKGEPTLELNDKGGYFDLAPTDLGENCRRDIVLELEEMGFEIEASHHEVAPGQHEIDFKYAGAVRSCDDIQTFKLVVKTIARKHGLHATFMPKPLFGVNGSGMHCNLSLFKNGVNAFFDENADLQLSETAKHFIAGIVKHATSFTAVTNPTVNSYKRLVPGYEAPCYVAWSAQNRSPLIRIPASRGISTRVEVRSVDPAANPYLALSVLLAAGLDGIKNKLEAPAPIDRNIYVMSKEERMENGIVDLPATLAEALEEFKSNEVMVKALGEHLFEHFIEAKEIEWDMFRTQVHPWEREQYMSQY
notes: glutamine synthetase (GS, class GSI-alpha) of B. subtilis; gene bought from Genscript, in pET15b; Dodecamer as apo protein; tetradecamer (14 copies) in the complexes with TnrA, GlnR and the GlnR C-tail peptide; The His-tag was removed only for crystallography; also called Bs GS; source: E. coli C41(DE3), purified (cobalt NTA); copies: 12
B3: fluoresceinated Sa GlnR C-tail peptide (peptide)
peptide: fluorescein-KPIGETLPINRGDLSRFIK
B4: Lm GlnR(1-87), His-tag removed (crystallography) (domain or fragment, L. monocytogenes, UniProt L8DSZ4 1-87, looked up)
chain: MSEKEIRRSMPLFPIGPVMKLTDLTARQIRYYEDQGLIHPARNQGNHRLYSLQDIDVLLEIKDYLNDGLNIAGIKKMYQMQQKESKE
notes: GlnR of L. monocytogenes (122 residues), residues 1-87; Dimer on the 21 bp operator DNA, generated by crystallographic symmetry; also called Lm GlnR-DNA complex; source: E. coli C41(DE3), purified (cobalt NTA, thrombin digestion, Ni-NTA); not shown: His-tag, N-terminal, cleaved
B5: Bacillus subtilis TnrA, full length (natural protein, B. subtilis, UniProt Q45666 1-110, looked up)
chain: MTTEDHSYKDKKVISIGIVSELTGLSVRQIRYYEERKLIYPQRSSRGTRKYSFADVERLMDIANKREDGVQTAEILKDMRKKEQMLKNDPQVRKKMLEGQLNAHFRYKNR
notes: TnrA transcription regulator (MerR-like) of B. subtilis; Its production is not described here; also called FL TnrA; Bs TnrA

Experiments:
[1] = target: Paenibacillus polymyxa glutamine synthetase, His-tag removed (crystallography) (P. polymyxa); assay: crystal structure; GS reacted with 5 mM MgCl2, 5 mM ATP and 5 mM Met-Sox (Met-Sox-P-ADP transition state complex); hanging drop, rt
[2] = target: T1, Pp GS; assay: X-ray crystal structure […] Å; assay type: binding; settings: formed in situ from 5 mM ATP and 5 mM Met-Sox with 5 mM MgCl2; with Met-Sox-P
[3] = target: Listeria monocytogenes glutamine synthetase, His-tag removed (crystallography) (L. monocytogenes); assay: crystal structure; GS reacted with 5 mM MgCl2, 5 mM ATP and 5 mM Met-Sox (Met-Sox-P-ADP transition state complex); hanging drop, rt
[4] = target: fluoresceinated Lm GlnR C-tail peptide (L. monocytogenes); assay: fluorescence polarisation; FBI-GS against the corresponding fluoresceinated GlnR C-tail; 25 mM Tris pH 7.5, 100 mM NaCl, 5 mM MgCl2, 20 mM glutamine; three technical repeats
[5] = target: Listeria monocytogenes glutamine synthetase (L. monocytogenes); assay: cryo-EM structure; apo GS without peptide, 0.9-1.0 mg/mL, exchanged into Buffer B
[6] = target: Listeria monocytogenes glutamine synthetase (L. monocytogenes); assay: cryo-EM structure; GS (0.75-1.0 mg/mL) with 2.5 or 5 mM GlnR C-tail peptide, 30 min at rt; Buffer B (12.5 mM Tris pH 7.5, 20 mM glutamine, 5 mM MgCl2, 150 mM NaCl, 2.5% glycerol, 1 mM BME)
[7] = target: fluoresceinated Sa GlnR C-tail peptide (S. aureus); assay: fluorescence polarisation; FBI-GS against the corresponding fluoresceinated GlnR C-tail; 25 mM Tris pH 7.5, 100 mM NaCl, 5 mM MgCl2, 20 mM glutamine; three technical repeats
[8] = target: Staphylococcus aureus glutamine synthetase (S. aureus); assay: cryo-EM structure; apo GS without peptide, 0.9-1.0 mg/mL, exchanged into Buffer B
[9] = target: Staphylococcus aureus glutamine synthetase (S. aureus); assay: cryo-EM structure; GS (0.75-1.0 mg/mL) with 2.5 or 5 mM GlnR C-tail peptide, 30 min at rt; Buffer B (12.5 mM Tris pH 7.5, 20 mM glutamine, 5 mM MgCl2, 150 mM NaCl, 2.5% glycerol, 1 mM BME)
[10] = target: fluoresceinated Pp GlnR C-tail peptide (P. polymyxa); assay: fluorescence polarisation; FBI-GS against the corresponding fluoresceinated GlnR C-tail; 25 mM Tris pH 7.5, 100 mM NaCl, 5 mM MgCl2, 20 mM glutamine; three technical repeats
[11] = target: Paenibacillus polymyxa glutamine synthetase (P. polymyxa); assay: cryo-EM structure; apo GS without peptide, 0.9-1.0 mg/mL, exchanged into Buffer B
[12] = target: Paenibacillus polymyxa glutamine synthetase (P. polymyxa); assay: cryo-EM structure; GS (0.75-1.0 mg/mL) with 2.5 or 5 mM GlnR C-tail peptide, 30 min at rt; Buffer B (12.5 mM Tris pH 7.5, 20 mM glutamine, 5 mM MgCl2, 150 mM NaCl, 2.5% glycerol, 1 mM BME)
[13] = target: Staphylococcus aureus glutamine synthetase, His-tag removed (crystallography) (S. aureus); assay: crystal structure; GS reacted with 5 mM MgCl2, 5 mM ATP and 5 mM Met-Sox (Met-Sox-P-ADP transition state complex); hanging drop, rt
[14] = target: Sa GlnR(1-87), His-tag removed (crystallography) (S. aureus) (UniProt Q53687); assay: crystal structure; GlnR(1-87) with a 21-mer operator DNA (protein:DNA 1:1.5); GlnR dimer on the DNA
[15] = target: B2; assay: cryo-EM structure; GS (0.75-1.0 mg/mL) with 2.5 or 5 mM GlnR C-tail peptide, 30 min at rt; Buffer B (12.5 mM Tris pH 7.5, 20 mM glutamine, 5 mM MgCl2, 150 mM NaCl, 2.5% glycerol, 1 mM BME); settings: both partners purified
[16] = target: fluoresceinated Bs GlnR C-tail peptide (B. subtilis); assay: fluorescence polarisation; FBI-GS against the corresponding fluoresceinated GlnR C-tail; 25 mM Tris pH 7.5, 100 mM NaCl, 5 mM MgCl2, 20 mM glutamine; three technical repeats
[17] = target: the molecule itself; assay: negative stain EM; apo Bs GS alone; 25 mM Tris pH 7.5, 200 mM NaCl, 5% glycerol, 1 mM MgCl2; 20-50 μg/mL; 2D class averages
[18] = target: the molecule itself; assay: cryo-EM structure; GS (0.75-1.0 mg/mL) with 2.5 or 5 mM GlnR C-tail peptide, 30 min at rt; Buffer B (12.5 mM Tris pH 7.5, 20 mM glutamine, 5 mM MgCl2, 150 mM NaCl, 2.5% glycerol, 1 mM BME)
[19] = target: T2, Sa GlnR(1-87); assay: FP
[20] = target: the molecule itself; assay: crystal structure; GlnR(1-87) with a 21-mer operator DNA (protein:DNA 1:1.5); GlnR dimer on the DNA
[21] = target: B2; assay: negative stain EM; Bs GS mixed 1:1 with FL TnrA; 25 mM Tris pH 7.5, 200 mM NaCl, 5% glycerol, 1 mM MgCl2, 5 mM glutamine; 2D class averages; settings: both partners purified

Paenibacillus polymyxa glutamine synthetase, His-tag removed (crystallography) (enzyme)
stoichiometry N [1]: 12

Nc1ncnc2c1ncn2[C@@H]1O[C@H](COP(=O)(O)OP(=O)(O)O)[C@@H](O)[C@H]1O [ADP]
X-ray crystal structure 1.98 Å [2]: densities for Met-Sox-P and ADP were clearly observed in each enzyme

Listeria monocytogenes glutamine synthetase, His-tag removed (crystallography) (enzyme)
stoichiometry N [3]: 12

Listeria monocytogenes glutamine synthetase (enzyme)
Kd [4]: 27.2 µM
stoichiometry N [5]: 12
stoichiometry N [6]: 14

Staphylococcus aureus glutamine synthetase (enzyme)
Kd [7]: 7.2 µM
stoichiometry N [8]: 12
stoichiometry N [9]: 12

Paenibacillus polymyxa glutamine synthetase (enzyme)
Kd [10]: 18.7 µM
stoichiometry N [11]: 12 and 14
stoichiometry N [12]: 14 and 12

Staphylococcus aureus glutamine synthetase, His-tag removed (crystallography) (enzyme)
stoichiometry N [13]: 12

Sa GlnR(1-87), His-tag removed (crystallography) (from UniProt Q53687 1-87) (domain or fragment)
stoichiometry N [14]: 2

B1
binding result [15]: binds

B2
Kd [16]: 4.2 µM
stoichiometry N [17]: 12
stoichiometry N [18]: 14

B3
Kd [19]: 56 µM

B4
stoichiometry N [20]: 2

B5
binding result [21]: binds
